Assay results from the supplement of paper PMC12764529.
± gives the half width of the 95% confidence interval.

Key:
[1] = folding stability dG unfold from chymotrypsin proteolysis; higher = more stable
Summary of the method: (§1)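 Designed mini-proteins with no cysteine and under 80 residues were kept only if AlphaFold2 dimer inter-PAE was above 15. In a PA-tagged cDNA display construct, they were digested with trypsin and chymotrypsin and then sequenced. K50 was inferred by Bayesian fitting of counts, and unfolding free energy was derived per protease or combined against a sequence-predicted unfolded-state K50 and a shared folded-state K50.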

[2] = folding stability dG unfold from trypsin proteolysis; higher = more stable
Summary of the method: as §1

[3] = folding stability dG unfold (combined trypsin and chymotrypsin); higher = more stable
Summary of the method: as §1

Row | Sequence | folding stability dG unfold [1] [kcal/mol] | folding stability dG unfold [2] [kcal/mol] | folding stability dG unfold [3] [kcal/mol]
1 | SAGGSAGGMKIRIEIEMTPEEVEALREELEKAGYRVEVERREDGRVRVTIEIELPPPPPPPEEESAGGSAGG [r6_8_TrROS_Hall] | 3.75 ± 0.13 | 3.08 ± 0.24 | 3.46 ± 0.2
2 | SAGGSAGGMKITTPDGKEITFPPKDETVTLTITVKLEDGTTVTIEIKFNKNGEIVEIKISIEKKSAGGSAGG [r6_530_TrROS_Hall] | 2.43 ± 0.061 | 1.52 ± 0.07 | 1.99 ± 0.17
3 | SAGGSAGGMKITVEEVKVEKKEDGSYRVRIRLKNGEVLELEFESLEEALAAAKKLGAEITEIEPSAGGSAGG [r6_84_TrROS_Hall] | 3.54 ± 0.038 | 3.12 ± 0.058 | 3.35 ± 0.04
4 | SAGGSAGGMKIVVEEVDEEKGYVRIRIEDPETKEEKEIVVKVKTPEEAEALAKKLAEAGYEVETSAGGSAGG [r6_796_TrROS_Hall] | 1.79 ± 0.028 | 1.27 ± 0.045 | 1.61 ± 0.087
5 | SAGGSAGGMKPGEEKEITLPDGSKIKVRIKDGKLEIEFENGERKEIEIKPGEKIEIKLPKGVKPSAGGSAGG [r6_970_TrROS_Hall] | 2.05 ± 0.085 | 1.4 ± 0.076 | 1.81 ± 0.083
6 | SAGGSAGGMKPISRSTYTNPLNGTTITVTKYPETGEYVITLPDGTTYTVPKSVPITSVEEAIKNSAGGSAGG [r6_72_JUSTAS] | 1.32 ± 0.15 | 0.32 ± 0.066 | 0.977 ± 0.096
7 | SAGGSAGGMKQYIVTVTLKSPDGTEHTIELETESLDEVKEKLKNLPDPNLELVELKVVPKEELASAGGSAGG [r6_297_JUSTAS] | 2.21 ± 0.035 | 2.39 ± 0.098 | 2.25 ± 0.13
8 | SAGGSAGGMKVKIVSFDPENQEVVIYDEKTGKEIVVKAKSVEELKAALEKLGLEVEVEVLPPEESAGGSAGG [r6_27_TrROS_Hall] | 3.19 ± 0.26 | 2.99 ± 0.43 | 3.3 ± 0.39
9 | SAGGSAGGMKVTIEKENGKYRIKVEIEKNGKKIEIEIDMSVEELKKELEKKLNIKIKKVEIEPVSAGGSAGG [r6_762_TrROS_Hall] | 1.03 ± 0.53 | 1.7 ± 0.2 | 1.5 ± 0.66
10 | SAGGSAGGMKVTISSKGLPATITYYDPRNGTSTTVPINGDPEAAVAALKEATGLDVTDVTVTVESAGGSAGG [r6_763_JUSTAS] | 0.52 ± 0.11 | 0.71 ± 0.04 | 0.617 ± 0.12
11 | SAGGSAGGMKVTSRETTEITVDTSTGKVTITTTTTLSNGTVVPVGTTTVAISELPEELLSEIESSAGGSAGG [r6_469_JUSTAS] | 0.886 ± 0.019 | 0.308 ± 0.026 | 0.707 ± 0.042
12 | SAGGSAGGMLEITVPSRREPDSLEVEITITDPSSNTTTTLRRRFPPGDETSPEEIAEKIAAELSSAGGSAGG [r6_234_JUSTAS] | 0.332 ± 0.23 | 0.677 ± 0.13 | 0.505 ± 0.28
13 | SAGGSAGGMLRIKTKDGKEIEITDDEVRIRFADGKKTVTVPAEKLKEALEAAEKAGMEIVEIEPSAGGSAGG [r6_337_TrROS_Hall] | 1.9 ± 0.057 | 0.00945 ± 0.21 | 1.44 ± 0.16
14 | SAGGSAGGMLSPEEAEAIARALEAAGRPVTELVVTEHPEGTATVTLTVRYPDGSTETLPLSLPASAGGSAGG [r6_762_JUSTAS] | 0.782 ± 0.1 | 1.27 ± 0.035 | 1.05 ± 0.2
15 | SAGGSAGGMLTTQETSSDPATNLTTTTTTLTEKDASGNLVPLETTVTTTTSPPAPSTTAPTYAASAGGSAGG [r6_901_JUSTAS] | 0.432 ± 0.024 | 1.89 ± 0.061 | 1.29 ± 0.089
16 | SAGGSAGGMMYVVKITNEDGETLTIEAESEEEALEAARALAEETGREITRIEVRRLSKEEEEEESAGGSAGG [r6_162_TrROS_Hall] | 2.787 ± 0.021 | 2.28 ± 0.06 | 2.64 ± 0.064

Row | Sequence | folding stability dG unfold [1] [kcal/mol] | folding stability dG unfold [2] [kcal/mol] | folding stability dG unfold [3] [kcal/mol]
17 | SAGGSAGGMPIPPEVTEISFSKLPNGTYRLTITTKDGKTLTDVTFPPDLDPETAVEAAIATVAASAGGSAGG [r6_436_JUSTAS] | 1.48 ± 0.06 | 1.45 ± 0.028 | 1.5 ± 0.053
18 | SAGGSAGGMPLLPLNKEVRVLSVSYIPPNDVVVVRVKGLDNVESTILIPVSLAKNIPISPDSTLSAGGSAGG [r6_910_TrMRF] | 0.44 ± 0.059 | 0.944 ± 0.024 | 0.733 ± 0.056
19 | SAGGSAGGMPPELSEEEVVRRAVERAVRELGVPLEELPPDWRVDARVERVGDEWLVEVDIELPASAGGSAGG [r6_740_TrMRF] | 1.68 ± 0.074 | 1.33 ± 0.037 | 1.57 ± 0.083
20 | SAGGSAGGMPTLVVLREVAEKLEEGQRVRVRFRIPGTDEWVEAEVPINDPELVINFENPEVEEASAGGSAGG [r6_401_TrMRF] | 1.48 ± 0.097 | 1.06 ± 0.042 | 1.33 ± 0.12
21 | SAGGSAGGMPVTPEEARAIAEELRAELGATTVEVEVSPDGRTVTITITSSEDGKVLTRTIEFEASAGGSAGG [r6_550_JUSTAS] | 2.33 ± 0.036 | 2.25 ± 0.091 | 2.29 ± 0.059
22 | SAGGSAGGMRVRLTFPDGSVVELDLSSLPFSPEEVERAGEEELRALLEEAYPDREIELERVPEPSAGGSAGG [r6_165_JUSTAS] | 2.93 ± 0.032 | 2.13 ± 0.056 | 2.63 ± 0.051
23 | SAGGSAGGMRYVTVTVTVPSNGKKYTYTKEIAPDEVFNISEAELAAEFGYPDVVVTVSESPIEDSAGGSAGG [r6_722_JUSTAS] | 3.39 ± 0.022 | 2.19 ± 0.074 | 3.08 ± 0.076
24 | SAGGSAGGMSIKVEVPGPYTVKIYRPDGKPIGEIEGEPGSVIEIDLNVPPGEAKNLIIEVYPTDSAGGSAGG [r6_471_TrMRF] | 2.58 ± 0.067 | 1.61 ± 0.074 | 2.2 ± 0.24
25 | SAGGSAGGMSITINLPNGVTLTITTGDNDVYPITITYPGGETKTLTVTEPLSSISQVISNIVNSSAGGSAGG [r6_27_JUSTAS] | 3.28 ± 0.035 | 3.38 ± 0.069 | 3.33 ± 0.042
26 | SAGGSAGGMTFKDPNSNTTASVTEVTPTSVTVTYTLSDGTTRTVTVPTSLVTPDSTVPFTVTSSSAGGSAGG [r6_152_JUSTAS] | 0.789 ± 0.16 | 0.983 ± 0.032 | 0.892 ± 0.064
27 | SAGGSAGGMTIKIEVNGKIIEIELPEGIKEITKIEIKKDGTITLYIKDNKKKITIKLDKLKKLKSAGGSAGG [r6_369_TrROS_Hall] | 3.01 ± 0.1 | 1.2 ± 0.09 | 2.34 ± 0.27
28 | SAGGSAGGMTITISTGSSGLTVNITLTPPTGPPVTVTISFDPSELEEFLKELPDYEIESITVEGSAGGSAGG [r6_879_JUSTAS] | 2.73 ± 0.15 | 2.79 ± 0.17 | 2.8 ± 0.13
29 | SAGGSAGGMTITTTENPNSNLTTYDVTIGNTKVTVTVNPNNPGVIKTEGDNDVPVEVVINAVLSSAGGSAGG [r6_197_JUSTAS] | 0.456 ± 0.043 | 1.69 ± 0.059 | 1.21 ± 0.056
30 | SAGGSAGGMTPVVVTVTITLPNGEVVEYRVPVAPDELEAAAEAVKEPLEAQGVDVEVEIEAVAASAGGSAGG [r6_721_JUSTAS] | 1.5 ± 0.033 | 1.99 ± 0.065 | 1.7 ± 0.089
31 | SAGGSAGGMTVEIDLDLEVPDGGVRLERLVVDPERPLVLAFLTLEDGTKRVIPFESLEELLERLSAGGSAGG [r6_547_TrMRF] | 1.21 ± 0.032 | 1.26 ± 0.064 | 1.23 ± 0.11
